# Experimental data from patent US8728472B2, “Antibodies that bind selectively to P25 and uses therefor” (The Board of Regents of the University of Texas System, priority 2009, dated 2014).
# Entries after “also recorded” stand apart in the source; their conditions may differ.
# How the values were obtained:
# p25 [1] = target: T1, p25 (Rattus norvegicus, UniProt P61810); assay: Immunoblotting and immunostaining for p25 (p25-GFP lysates, transfected HEK293T cells, ischemic tissue); format: binding; settings: compared with commercial p35/p25 Ab
# T1 construct: cleaves p35, thereby removing the first 100 amino acids to produce p25; expressed in transfected cells; host or cells: HEK293T; also purified Sf9 protein, p25-GFP transgenic mouse striatum, rat ischemic brain and neurons
# T1 sequence (P61810 99-307): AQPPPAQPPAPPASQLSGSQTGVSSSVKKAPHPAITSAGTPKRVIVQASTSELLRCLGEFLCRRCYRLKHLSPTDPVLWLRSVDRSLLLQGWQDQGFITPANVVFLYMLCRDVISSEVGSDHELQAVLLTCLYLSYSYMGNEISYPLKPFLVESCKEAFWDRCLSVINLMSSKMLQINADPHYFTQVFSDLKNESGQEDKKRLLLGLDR
# Source text: (§1) Cdk5/p25 proteins (FIG. 2A) were co-expressed in Sf9 insect cells from a Baculovirus vector (pBAC4X-1) encoding the genes for the human proteins. […] The proteins were absorbed to a Ni-NTA column, eluted and further purified by FPLC S-sepharose HP column chromatography. Mice received intrasplenic injections of pure Cdk5/p25 conjugated to biodegradable microparticles to optimize antigen presentation. ELISA assays were used to initially screen mice sera for antibody production using pure Cdk5/p25 followed by Western blotting of the pure Cdk5/p25 and striatal cell lysates from a p25 (p25-GFP) over-expressing mouse line (FIG. 2B). When both assays yielded positive results, a hemisplenectomy was performed and B cells were fused with SP2/0-IL6 myeloma cells to make hybridomas. Hybridoma culture supernatants were screened by ELISA, immunoblotting of pure protein (FIG. 2A), and immunohistochemical staining of HEK293T cultured cells transfected with Cdk5, p35, Cdk5/p35, p25, Cdk5/p25, or negative control (blank) eukaryotic expression plasmids (FIG. 2C). Hybridoma lines producing antibodies selective for p25 were re-derived and screens were repeated.
# (§2) Abs to p35, DARPP-32 (Nishi et al., 1997), GFAP, and p25 were used to stain rat coronal cryosections (20 μm) from control and stroked hemispheres. […] See Methods for further details.
# p25 [2] = assay: as above; format: binding
# Source text: as §1, §2
# Cdk5/p25 = target: T2, Cdk5/p25 (Homo sapiens, UniProt Q15078); assay: Inhibition of Cdk5/p25 kinase activity by monoclonal antibody; format: biochemical; settings: FIG. 4
# T2 construct: cleaves p35, thereby removing the first 100 amino acids to produce p25
# T2 sequence (Q15078 99-307 limits assumed): as the sequence (P61810 99-307) above, with V23G, I35V counted along it
# PKA = assay: Effect of monoclonal antibody on PKA activity; format: biochemical; settings: FIG. 4
# p35 = target: T3, p35 (Mus musculus, UniProt P61809); assay: Immunoblotting and immunostaining for p35; format: binding; settings: immunoblot
# T3 construct: from tissue; host or cells: striatal homogenates of p25-GFP over-expressing mice
# T3 sequence (P61809 whole entry): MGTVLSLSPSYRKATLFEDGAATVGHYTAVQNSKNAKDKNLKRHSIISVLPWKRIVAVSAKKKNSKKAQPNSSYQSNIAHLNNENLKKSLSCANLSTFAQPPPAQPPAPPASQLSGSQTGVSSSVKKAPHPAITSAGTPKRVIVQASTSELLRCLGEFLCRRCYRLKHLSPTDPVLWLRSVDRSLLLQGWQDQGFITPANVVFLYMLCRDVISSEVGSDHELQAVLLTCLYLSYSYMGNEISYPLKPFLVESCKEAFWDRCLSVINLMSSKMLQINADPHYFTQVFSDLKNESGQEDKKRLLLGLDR
# Source text: as §1, §2
# [3] = listed as anti-p25 monoclonal antibody
molecule,measurement,setting,value
"1C4: monoclonal antibody binding p25 but not p35, produced by hybridoma cell line 1C4 (ATCC PTA-8555) (antibody, V domains shown) VH: QIQLEESGPELRKPGETVRISCKASGYTFTTAGMQWVQKMPGTGLKWIGWINTHSGVPKYAGEFTGRFDFSLETSASTAYLQIVNLKNEDTATYFCARYGKFGEMDYWGQGTSVTVSS VL: IVMTQSPASLAVSLGQRATISCRSSETVDSDGNSFMHWYQQKPGQSPKLLLYLASTLESGVPARFSGSGSRTDFTLTIDPVEADDAATYYCHQNNEDPTFGGGTKLEIKR",sensitivity of detection of p25 generated by MCAO,p25 [1],greater sensitivity than a commercial p35/p25 Ab
same,detection of p25,"p25 [2]; immunoblot of lysates from GFP-p25 over-expressing mice, focal ischemia in brain slices and cultured neurons, listed as anti-p25 monoclonal antibody",detects transgenic p25-GFP; also recorded: strongly detects p25 generated in response to focal ischemia
same,staining of cells transfected with expression vectors,"p25 [2]; transfected cells, p25 vs p35 expression vector",only stains cells transfected with an expression vector for p25 but not p35
same,inhibition of Cdk5/p25 activity,Cdk5/p25,almost completely inhibits Cdk5 activity
same,inhibition of Cdk5/p25 activity,Cdk5/p25; [3],inhibits Cdk5/p25 activity
same,effect on PKA activity,PKA,no effect on PKA
same,effect on PKA activity,PKA; [3],little or no effect on PKA activity
same,reactivity with p35,p35,does not react with p35 at all
